Results as given in the RNAGym collection of RNA variant scans (doi:10.7554/elife.90254).

B1: OR4K15 (parent)
chain: GUUAACGGUCAUAGGCCAUGGAAACUAGGAGCACCAUUUCGCUGCCAGUGAAGAAAUGAACAAAGAAAAUCUGGGCCAGGCAGGCAUCAAAAGAAAUAGUCUUGCGCUCAACCAGAAAGUCUGUAAUCAUUUUAAGGGUA

Variants of: B1
Assay: self-cleavage, relative activity (ratio to wild type); higher = more cleavage; in vitro, sequencing; the parent is a self-cleaving ribozyme
A56G A96U showed a self-cleavage of 1.64.
In the case of U57C A59G, the self-cleavage is reported as 0.57.
Variant U57C U100C has a self-cleavage of 1.83.
U57A A68U showed a self-cleavage of 1.15.
With U57C G75A the self-cleavage was 0.12.
For U57C G75C, the self-cleavage was 0.17.
U57A A116U showed a self-cleavage of 0.15.
Variant U57A A116G has a self-cleavage of 0.94.
U57A U132A showed a self-cleavage of 0.7.
Work on U57A U102C yielded a self-cleavage of 0.78.
U57C A86U gave a self-cleavage of 1.93.
For U57C A60G, the self-cleavage was 1.01.
Work on U57C A60U yielded a self-cleavage of 1.78.
Work on A56G A86U yielded a self-cleavage of 1.67.
A56G A86C showed a self-cleavage of 1.48.
A56G A86G showed a self-cleavage of 0.8.
With A56G A78C the self-cleavage was 0.22.
For A56G A78G, the self-cleavage was 0.25.
In the case of A56G A78U, the self-cleavage is reported as 0.2.
Variant U57C U132C has a self-cleavage of 0.52.
For U57A U131C, the self-cleavage was 1.07.
Variant A56G U87A has a self-cleavage of 1.54.
For U57C G106A, the self-cleavage was 0.
For A56C A117U, the self-cleavage was 0.96.
With U57A U108C the self-cleavage was 0.02.
In the case of U57A U108A, the self-cleavage is reported as 0.03.
With A56G A140U the self-cleavage was 2.1.
Work on A56G A66G yielded a self-cleavage of 0.93.
A56G A66C gave a self-cleavage of 1.76.
U57A U133C gave a self-cleavage of 1.08.
Variant A56U has a self-cleavage of 1.54.
Work on A56G yielded a self-cleavage of 0.72.
In the case of U57G A95G, the self-cleavage is reported as 2.15.
A56G A110G showed a self-cleavage of 0.07.
Variant A56G A89U has a self-cleavage of 1.09.
U57C U108C gave a self-cleavage of 0.01.
A56G U100C showed a self-cleavage of 2.18.
Work on U57G U87A yielded a self-cleavage of 1.47.
With U57C A111G the self-cleavage was 0.01.
U57C A111U showed a self-cleavage of 0.08.
Work on A56U U130C yielded a self-cleavage of 0.34.
In the case of U57G A64G, the self-cleavage is reported as 0.9.
Work on A56G G106U yielded a self-cleavage of 0.01.
In the case of A56U A114G, the self-cleavage is reported as 0.36.
A56U A114U gave a self-cleavage of 0.04.
Variant A56G U108C has a self-cleavage of 0.01.
In the case of U57A A66G, the self-cleavage is reported as 0.73.
For A56G U122C, the self-cleavage was 0.91.
Work on A56G U102A yielded a self-cleavage of 0.97.
A56G A62U gave a self-cleavage of 2.29.
For A56G A114C, the self-cleavage was 0.02.
In the case of A56G A114G, the self-cleavage is reported as 0.31.
Variant A56G A114U has a self-cleavage of 0.08.
U57A G136A showed a self-cleavage of 1.37.
Work on U57C G73A yielded a self-cleavage of 0.15.
Work on U57C U97A yielded a self-cleavage of 1.32.
In the case of A56G A129C, the self-cleavage is reported as 1.03.
For A56G A129G, the self-cleavage was 1.45.
In the case of A56G G83U, the self-cleavage is reported as 0.73.
U57A U70C gave a self-cleavage of 0.48.
Variant A56G A126G has a self-cleavage of 0.36.
U57C C88U gave a self-cleavage of 1.04.
Work on A56G U97A yielded a self-cleavage of 2.36.
With A56U U97C the self-cleavage was 1.16.
With A56G G119A the self-cleavage was 2.09.
A56G U57A gave a self-cleavage of 1.53.
In the case of U57A A118G, the self-cleavage is reported as 1.37.
A56G A59G showed a self-cleavage of 1.2.
With U57A A98G the self-cleavage was 0.42.
U57A A98C showed a self-cleavage of 1.24.
Work on A56G G79A yielded a self-cleavage of 0.1.
With U57A G75A the self-cleavage was 0.27.
A56G G115A showed a self-cleavage of 0.11.
In the case of A56G G115U, the self-cleavage is reported as 0.03.
U57A A92G showed a self-cleavage of 1.42.
In the case of U57G A126G, the self-cleavage is reported as 0.52.
Variant U57A A91G has a self-cleavage of 0.54.
Variant U57C A62G has a self-cleavage of 0.7.
A56G A116G showed a self-cleavage of 0.66.
U57A G123C showed a self-cleavage of 1.58.
U57C A92G showed a self-cleavage of 0.71.
U57G A62G showed a self-cleavage of 0.83.
With U57C C121U the self-cleavage was 2.46.
For U57C C121A, the self-cleavage was 1.91.
In the case of A56G C128U, the self-cleavage is reported as 0.54.
For U57A A69C, the self-cleavage was 0.34.
Variant U57A A69G has a self-cleavage of 0.95.
Work on U57C U103C yielded a self-cleavage of 0.86.
In the case of A56G A90G, the self-cleavage is reported as 1.03.
In the case of U57A U100C, the self-cleavage is reported as 2.19.
A56C U108C showed a self-cleavage of 0.01.
U57C A114C showed a self-cleavage of 0.04.
For U57C A114U, the self-cleavage was 0.05.
In the case of A56C U133A, the self-cleavage is reported as 1.4.
Variant U57C A69C has a self-cleavage of 0.84.
For A56G A94U, the self-cleavage was 1.08.
Work on A56G A67G yielded a self-cleavage of 0.97.
U57A U130A gave a self-cleavage of 0.77.
Work on U57C A64G yielded a self-cleavage of 0.81.
U57A A59U showed a self-cleavage of 2.2.
U57A A59G showed a self-cleavage of 0.5.
Variant U57C A89U has a self-cleavage of 0.77.
For U57A A62G, the self-cleavage was 1.13.
For A56U A110U, the self-cleavage was 1.
For U57C U102A, the self-cleavage was 0.48.
U57C U102C showed a self-cleavage of 1.38.
U57C U102G showed a self-cleavage of 0.29.
For A56G A95G, the self-cleavage was 1.69.
Work on A56G A68C yielded a self-cleavage of 2.25.
A56G U133C showed a self-cleavage of 1.43.
Variant U57C A82G has a self-cleavage of 0.49.
Work on U57A G106A yielded a self-cleavage of 0.01.
In the case of U57C G84A, the self-cleavage is reported as 1.76.
Work on U57A A82U yielded a self-cleavage of 0.31.
U57C U124C showed a self-cleavage of 0.59.
Work on U57C U124G yielded a self-cleavage of 0.94.
U57A A86G showed a self-cleavage of 1.09.
Variant A56G A111G has a self-cleavage of 0.01.
Variant U57A A63G has a self-cleavage of 1.7.
For U57G A129U, the self-cleavage was 1.78.
A56U A96C showed a self-cleavage of 0.35.
In the case of A56G C107A, the self-cleavage is reported as 0.02.
With U57C U120C the self-cleavage was 0.41.
Work on U57C U120A yielded a self-cleavage of 2.01.
A56G U139A gave a self-cleavage of 1.41.
Variant A56G U139C has a self-cleavage of 0.78.
In the case of U57A U139A, the self-cleavage is reported as 0.91.
For U57C U70C, the self-cleavage was 0.47.
U57C A118G gave a self-cleavage of 0.43.
In the case of U57C A118U, the self-cleavage is reported as 0.37.
U57C A140G gave a self-cleavage of 1.11.
In the case of A56U A59G, the self-cleavage is reported as 1.62.
Variant A56G U132A has a self-cleavage of 2.05.
In the case of U57G A68G, the self-cleavage is reported as 1.53.
With U57C A68G the self-cleavage was 0.95.
Variant A56U C128A has a self-cleavage of 1.6.
U57A A125U gave a self-cleavage of 1.1.
With A56G U103A the self-cleavage was 0.04.
Variant A56G U103C has a self-cleavage of 0.25.
For U57C U87C, the self-cleavage was 0.63.
Work on A56C A118G yielded a self-cleavage of 0.63.
Work on A56G A63U yielded a self-cleavage of 1.68.
A56G A117G showed a self-cleavage of 1.3.
With A56G A125G the self-cleavage was 0.51.
Work on A56G A125U yielded a self-cleavage of 1.32.
With A56G A92G the self-cleavage was 1.68.
A56G A92U showed a self-cleavage of 2.54.
For U57A C105U, the self-cleavage was 0.04.
With U57C U122A the self-cleavage was 1.35.
For U57C U122C, the self-cleavage was 0.84.
U57C A135G showed a self-cleavage of 1.34.
U57A A78U gave a self-cleavage of 0.16.
In the case of U57A A90G, the self-cleavage is reported as 0.76.
Variant A56G U120G has a self-cleavage of 1.98.
For A56G U120C, the self-cleavage was 0.89.
Variant U57A U127A has a self-cleavage of 1.95.
Work on U57A U127C yielded a self-cleavage of 0.65.
With U57C C105U the self-cleavage was 0.15.
Work on A56G A118G yielded a self-cleavage of 1.19.
With U57C C76U the self-cleavage was 0.13.
In the case of U57C A94G, the self-cleavage is reported as 1.62.
A56U A126U showed a self-cleavage of 0.81.
For A56U A126G, the self-cleavage was 1.34.
With U57G A78U the self-cleavage was 0.22.
For U57C A117C, the self-cleavage was 0.7.
Work on A56U U127C yielded a self-cleavage of 1.47.
Work on A56G G74U yielded a self-cleavage of 0.14.
